Where “and” joins values, the source holds several entries; their conditions need not be identical. Equal entries are not always repeated.

Series [1] addresses E6AP LXXLL motif (Homo sapiens) (UniProt Q05086). In words: SPR. Conditions: cited from earlier work.
Series [2] addresses E6APwt, 16-mer LXXLL motif peptide of E6AP. As to the kind of experiment: SPR; Biacore T200, 25 °C; biotinylated peptide reversibly captured on CAP chip (Biotin CAPture kit), MBP-E6 as analyte in two-fold dilutions from 10 µM; Tris 50 mM pH 8, NaCl 400 mM, DTT 2 mM, 0.005% polysorbate 20; steady-state analysis, 1:1 model; protein samples purified on resin N1 or N2. A general note: In SPR one partner is held on a chip, and binding of the other changes the refractive index at the surface.

Series [3] concerns the molecule itself. As to the kind of experiment: SEC; analytical SEC on Superdex 200 Increase 5/150 GL in Buffer A (Tris 50 mM pH 8, NaCl 400 mM, DTT 2 mM), A280; monomer and oligomer peaks assigned by column calibration; samples from different resins, elution methods and contact times. On the technique in general: Size exclusion chromatography separates by hydrodynamic size, large species first.

Consider HPV16 E6 (from UniProt P03126), for which, in series [1], the Kd was 4.15 µM.

For “MBP-fused HPV16 E6 F47R 4C/4S (natural protein)”, the equilibrium dissociation constant (Kd) in series [2] is 1600 nM and 2000 nM.

B1: MBP-fused HPV8 E6 (natural protein)
chain: MDGQDKASNLDTNKDELPSTIKELAEALGIPLQDCLVPCNFCGNFLDFLELCEFDKKRLCLIWKNYVVTACCRCCCVATATFEFNEYYEQTVLGRDIELATGRSIFEIDVRCQNCLSFLDIIEKLDCCGRGRPFHKVRGGWKGVCRLCKHLYHDW
notes: Printed order of the fusion: MBP-6His-TEV site-E6 (vector pETM-41, NcoI/Acc65I sites); tags were not cleaved off; Expected MW 60.9 kDa; also called MBP-8E6; not shown: MBP, N-terminal, kept
In the case of B1, the binding result in series [3] is recorded as “binds”.

In general, Kd refers to the equilibrium constant for the complex coming apart.

Source of the values: article PMC6271572, “One-step affinity purification of fusion proteins with optimal monodispersity and biological activity: application to aggregation-prone HPV E6 proteins” (Microbial Cell Factories, 2018).
